Results: doi:10.1101/2020.09.09.287508 (bioRxiv, 2020)

Target: SARS-CoV-2 S-ECD-hFc (extracellular domain of the spike (S) protein, hFc-tagged) (SARS-CoV-2, UniProt P0DTC2 14-1213)
Assay: flow cytometry on cells

B1: ASGR1 (receptor)
chain: MTKEYQDLQHLDNEESDHHQLRKGPPPPQPLLQRLCSGPRLLLLSLGLSLLLLVVVCVIGSQNSQLQEELRGLRETFSNFTASTEAQVKGLSTQGGNVGRKMKSLESQLEKQQKDLSEDHSSLLLHVKQFVSDLRSLSCQMAALQGNGSERTCCPVNWVEHERSCYWFSRSGKAWADADNYCRLEDAHLVVVTSWEEQKFVQHHIGPVNTWMGLHDQNGPWKWVDGTDYETGFKNWRPEQPDDWYGHGLGGGEDCAHFTDDGRWNDDVCQRPYRWVCETELDKASQEPPLL
Kd: 94.8 nM

B2: KREMEN1 (receptor)
chain: ARPAPSPGLGPECFTANGADYRGTQNWTALQGGKPCLFWNETFQHPYNTLKYPNGEGGLGEHNYCRNPDGDVSPWCYVAEHEDGVYWKYCEIPACQMPGNLGCYKDHGNPPPLTGTSKTSNKLTIQTCISFCRSQRFKFAGMESGYACFCGNNPDYWKYGEAASTECNSVCFGDHTQPCGGDGRIILFDTLVGACGGNYSAMSSVVYSPDFPDTYATGRVCYWTIRVPGASHIHFSFPLFDIRDSADMVELLDGYTHRVLARFHGRSRPPLSFNVSLDFVILYFFSDRINQAQGFAVLYQAVKEELPQERPAVNQTVAEVITEQANLSVSAARSSKVLYVITTSPSHPPQTVPGSNSWAPPMGAGSHRVEGWTVYGLATLLILTVTAIVAKILLHVTFKSHRVPASGDLRDCHQPGTSGEIWSIFYKPSTSISIFKKKLKGQSQQDDRNPLVSD
Kd: 19.3 nM
